B1: HDV Ribozyme (parent)
chain: GGCCGGCAUGGUCCCAGCCUCCUCGCUGGCGCCGGCUGGGCAACAUUCCGAGGGGACCGUCCCCUCGGUAAUGGCGAAUGGGACCCA

Variants of B1 are the subject of the series. Put plainly: self-cleavage, relative activity (ratio to wild type); higher = more cleavage; co-transcriptional.
For the variant G53C U60C, the self-cleavage amounted to 1.

As for G54U G67A, the self-cleavage was 1.01.

Regarding G53C A56G, the self-cleavage came to 0.962.

As for A56G A77U, the self-cleavage came to 0.739.

As to A56C U72G, the self-cleavage amounted to 0.383.

Take G52U A77C: the self-cleavage turned out to be 0.54.

Consider A56G A71U, for which the self-cleavage stood at 0.957.

A56G A71G: the self-cleavage was 0.918.

Regarding G54A G81U, the self-cleavage was 0.229.

Consider G54U G74C, for which the self-cleavage was 0.182.

For G52U A71C, the self-cleavage stood at 0.745.

As for G53U A56C, the self-cleavage was 0.831.

Take G54A G82U: the self-cleavage is 0.205.

With G55U A87C, the self-cleavage came out at 1.01.

Regarding G55U A87G, the self-cleavage is 0.984.

In the case of G54A G67A, the self-cleavage stood at 0.698.

G54U G73A: the self-cleavage amounted to 0.776.

For the variant G54A U60C, the self-cleavage is 1.06.

For G54A U60A, the self-cleavage was 0.758.

With A56C U60C, the self-cleavage was determined as 0.98.

For G53A G68C, the self-cleavage came out at 0.604.

For G53A G68U, the self-cleavage stood at 0.807.

Regarding G53A G68A, the self-cleavage amounted to 0.743.

Regarding A56C G74C, the self-cleavage came to 0.312.

As for G52U G55C, the self-cleavage came to 0.961.

Consider G55C C66U, for which the self-cleavage came out at 0.983.

In the case of G55C C66G, the self-cleavage worked out at 1.2.

On to G53A U65A, for which the self-cleavage was 0.884.

On to G54C C64A, for which the self-cleavage was determined as 0.574.

Consider G55A C66G, for which the self-cleavage stood at 0.843.

In the case of G53A C85A, the self-cleavage was 0.933.

On to G53C A78C, for which the self-cleavage was 0.0678.

As to G55A G82C, the self-cleavage amounted to 0.356.

With G55A G82A, the self-cleavage was 0.324.

For the variant G54A A71G, the self-cleavage was found to be 0.959.

As for G54A A71C, the self-cleavage was found to be 0.753.

Turning to G53C C85U, the self-cleavage amounted to 0.808.

With G55C C63G, the self-cleavage is 0.888.

For the variant G55U G59C, the self-cleavage was 1.02.

For G54C U72C, the self-cleavage was determined as 0.69.

For G54C U72A, the self-cleavage was determined as 0.702.

As for G55C C57G, the self-cleavage was determined as 1.14.

For G53C A87G, the self-cleavage turned out to be 0.971.

For G52C U69C, the self-cleavage came out at 0.943.

As to G55A C64G, the self-cleavage came to 0.962.

As for G55A C64A, the self-cleavage was 0.95.

As to G52C G80C, the self-cleavage turned out to be 0.326.

For G55A G68A, the self-cleavage amounted to 0.831.

For the variant G53C A83G, the self-cleavage was 0.815.

Turning to G53C A83U, the self-cleavage was determined as 0.332.

For the variant G52U C64U, the self-cleavage turned out to be 0.881.

In the case of G52U C64G, the self-cleavage came out at 0.902.

With G52C U65C, the self-cleavage came out at 1.18.

With G52C U65A, the self-cleavage came to 0.939.

G52U C85A: the self-cleavage was determined as 0.784.

Turning to G53A A70C, the self-cleavage is 1.06.

For the variant G53A A70U, the self-cleavage stood at 1.02.

For the variant G55U C64A, the self-cleavage worked out at 0.94.

For G52U A87C, the self-cleavage turned out to be 0.95.

With G53U G67U, the self-cleavage is 0.715.

Consider G54A C61A, for which the self-cleavage stood at 1.07.

On to G54A U79C, for which the self-cleavage was determined as 0.411.

For the variant G54A U79G, the self-cleavage came out at 0.643.

As to G53C C63U, the self-cleavage worked out at 0.997.

In the case of G53A G73U, the self-cleavage amounted to 0.304.

G53A G73A: the self-cleavage was 0.44.

For the variant G53A G73C, the self-cleavage came out at 0.265.

Consider G52C C62A, for which the self-cleavage came out at 0.878.

With G55C A70G, the self-cleavage came out at 0.848.

On to G55C G76A, for which the self-cleavage is 1.18.

As for G55C G76U, the self-cleavage was found to be 1.06.

Regarding G54A A56G, the self-cleavage stood at 0.991.

For the variant G55U G73A, the self-cleavage was 0.533.

Turning to G55C C58G, the self-cleavage came to 1.11.

As to G55U G67A, the self-cleavage turned out to be 0.881.

For the variant G53U C63A, the self-cleavage is 1.2.

G54C A71C: the self-cleavage came out at 0.608.

Take G54C A71G: the self-cleavage turned out to be 0.646.

Take G55C A83U: the self-cleavage was 0.575.

In the case of G55C A83C, the self-cleavage stood at 0.314.

Regarding A56C A77C, the self-cleavage was determined as 0.482.

Take G52C C86A: the self-cleavage came out at 0.997.

With G52C C86U, the self-cleavage turned out to be 1.2.

With G55U A71C, the self-cleavage came out at 0.725.

Take G53C G76U: the self-cleavage turned out to be 0.967.

On to G52U U65G, for which the self-cleavage stood at 0.767.

For the variant G54C A83C, the self-cleavage worked out at 0.332.

As to G54U C85A, the self-cleavage worked out at 0.964.

Turning to G54U C85U, the self-cleavage stood at 1.02.

As to G55U U60G, the self-cleavage worked out at 1.12.

For G55U U60C, the self-cleavage worked out at 1.11.

Consider A56C G59C, for which the self-cleavage was determined as 1.05.

With G54A U69A, the self-cleavage stood at 0.982.

Turning to G54A U69C, the self-cleavage amounted to 0.95.

For G54U G82A, the self-cleavage stood at 0.277.

For G54A G76C, the self-cleavage turned out to be 1.04.

On to G54U A70G, for which the self-cleavage is 1.03.

With G52U G82C, the self-cleavage was 0.194.

As to G53C U79C, the self-cleavage came out at 0.47.

Take G52U G68A: the self-cleavage came out at 0.517.

Turning to G52U C62G, the self-cleavage came to 0.106.

With G52U C62A, the self-cleavage amounted to 0.822.

Take G52C G67C: the self-cleavage is 0.446.

In the case of G53U A70C, the self-cleavage was 0.774.

As for G54C U79C, the self-cleavage is 0.482.

For G52C U72C, the self-cleavage was 0.332.

With G55U G81U, the self-cleavage amounted to 0.272.

As to G55U G81C, the self-cleavage was determined as 0.106.

With G54A C64G, the self-cleavage was 0.657.

Consider G54C G68A, for which the self-cleavage came out at 0.858.

As to A56C G76C, the self-cleavage worked out at 1.06.

For the variant A56C G76A, the self-cleavage worked out at 1.17.

For G55C C64A, the self-cleavage is 0.855.

As to G52C C58G, the self-cleavage is 1.13.

Consider G54C U69G, for which the self-cleavage is 1.07.

On to G52C C85U, for which the self-cleavage is 1.09.

As to G53C G80U, the self-cleavage worked out at 0.293.

In the case of G53C G80A, the self-cleavage came to 0.307.

As for G53C G80C, the self-cleavage was 0.0755.

On to G55U A77C, for which the self-cleavage was 0.353.

With G52U C61G, the self-cleavage amounted to 0.927.

G54C C61G: the self-cleavage was 1.16.

For G55C C85U, the self-cleavage was 0.923.

G55C C85A: the self-cleavage was 0.752.

For the variant G52U C57A, the self-cleavage was 0.903.

As to G55C G82U, the self-cleavage amounted to 0.277.

Regarding G55C G82C, the self-cleavage is 0.277.

With A56C C57A, the self-cleavage amounted to 1.22.

A56C C57G: the self-cleavage came to 0.978.

As to G52U U79C, the self-cleavage worked out at 0.59.

On to G52U U79G, for which the self-cleavage came out at 0.521.

G53A G82A: the self-cleavage turned out to be 0.466.

For the variant G54C U60A, the self-cleavage turned out to be 1.08.

In the case of G54C U60C, the self-cleavage was found to be 1.22.

As for A56C G82U, the self-cleavage was determined as 0.404.

As to A56C G82A, the self-cleavage came out at 0.684.

In the case of G54U U60G, the self-cleavage was 0.989.

As to G54U C57A, the self-cleavage is 0.997.

For G54U C57U, the self-cleavage came out at 0.993.

On to G53A G74A, for which the self-cleavage stood at 0.554.

For the variant G53U G76U, the self-cleavage came to 0.939.

G54A G55C: the self-cleavage was 1.04.

Turning to G55A C75U, the self-cleavage was determined as 0.208.

As to G55A C75G, the self-cleavage was found to be 0.136.

Consider G53A U72A, for which the self-cleavage was 0.642.

Take G52U G53A: the self-cleavage worked out at 0.849.

With A56C U65A, the self-cleavage worked out at 0.955.

Regarding G52C C75U, the self-cleavage turned out to be 0.134.

Take G53U U65A: the self-cleavage was determined as 0.69.

Consider G54C G73U, for which the self-cleavage worked out at 0.205.

Consider G53U G68U, for which the self-cleavage amounted to 0.703.

Consider G52C C66A, for which the self-cleavage is 1.03.

For G54A A70G, the self-cleavage turned out to be 0.79.

Take G55U U72A: the self-cleavage amounted to 0.648.

As to G55A G67A, the self-cleavage is 0.997.

Regarding G55C C75A, the self-cleavage was 0.148.

On to G55C C75U, for which the self-cleavage is 0.0361.

G53U A71C: the self-cleavage is 0.538.

For the variant A56C C84G, the self-cleavage turned out to be 0.755.

On to G52U G76A, for which the self-cleavage is 0.936.

In the case of G55A G74A, the self-cleavage came to 0.457.

Consider G52C G68A, for which the self-cleavage turned out to be 0.564.

Consider G52C G68C, for which the self-cleavage was found to be 0.369.

Regarding G55U C61A, the self-cleavage is 1.09.

Turning to A56C C85G, the self-cleavage was determined as 1.04.

In the case of A56C C85U, the self-cleavage came out at 1.01.

As to A56C C85A, the self-cleavage is 0.806.

The values are drawn from the RNAGym collection of RNA variant scans (doi:10.7554/elife.80360).
